Assay results published in paper PMC12847411.

Assays:
Test in all cases: BLI
[1] = molecular target: MW05
[2] = molecular target: Sotrovimab
[3] = molecular target: AZD8895-450
[4] = molecular target: REGN10987
[5] = molecular target: AZD8895-275
[6] = molecular target: AZD8895-25
[7] = molecular target: AZD8895
[8] = molecular target: REGN10933
REGN10933, sequence (heavy, as listed by the source, chain 1 of 2): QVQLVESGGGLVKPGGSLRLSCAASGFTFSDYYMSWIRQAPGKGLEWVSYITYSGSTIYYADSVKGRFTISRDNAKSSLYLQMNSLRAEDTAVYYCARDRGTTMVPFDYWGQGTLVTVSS
REGN10933, sequence (light, as listed by the source, chain 2 of 2): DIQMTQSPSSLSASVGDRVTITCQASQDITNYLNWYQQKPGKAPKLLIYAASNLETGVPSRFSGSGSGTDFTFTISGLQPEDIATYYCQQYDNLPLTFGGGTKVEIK

AZD8895-450, sequence (heavy, as listed by the source, chain 1 of 2): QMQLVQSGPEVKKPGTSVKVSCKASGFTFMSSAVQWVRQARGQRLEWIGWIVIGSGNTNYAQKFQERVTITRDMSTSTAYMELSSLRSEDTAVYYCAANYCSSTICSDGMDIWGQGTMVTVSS
AZD8895-450, sequence (light, as listed by the source, chain 2 of 2): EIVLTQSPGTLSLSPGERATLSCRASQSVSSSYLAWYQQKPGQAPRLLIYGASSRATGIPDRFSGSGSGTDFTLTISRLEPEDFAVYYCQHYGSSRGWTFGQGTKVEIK
AZD8895, sequence (heavy, as listed by the source, chain 1 of 2): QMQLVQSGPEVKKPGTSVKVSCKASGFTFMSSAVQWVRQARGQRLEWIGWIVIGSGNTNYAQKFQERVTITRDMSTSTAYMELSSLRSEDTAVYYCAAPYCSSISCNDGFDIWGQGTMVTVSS
AZD8895-275, sequence (heavy, as listed by the source, chain 1 of 2): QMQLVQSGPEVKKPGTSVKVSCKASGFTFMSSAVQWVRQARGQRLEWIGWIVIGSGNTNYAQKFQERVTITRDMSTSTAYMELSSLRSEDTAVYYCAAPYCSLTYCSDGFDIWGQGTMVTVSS
REGN10987, sequence (heavy, as listed by the source, chain 1 of 2): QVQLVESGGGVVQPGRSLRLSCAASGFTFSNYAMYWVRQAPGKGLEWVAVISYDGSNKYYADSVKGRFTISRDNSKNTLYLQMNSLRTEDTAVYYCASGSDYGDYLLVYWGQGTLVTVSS
REGN10987, sequence (light, as listed by the source, chain 2 of 2): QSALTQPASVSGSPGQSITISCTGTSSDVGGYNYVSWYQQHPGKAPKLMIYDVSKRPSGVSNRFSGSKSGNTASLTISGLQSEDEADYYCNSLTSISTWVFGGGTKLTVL
MW05, sequence (light, as listed by the source): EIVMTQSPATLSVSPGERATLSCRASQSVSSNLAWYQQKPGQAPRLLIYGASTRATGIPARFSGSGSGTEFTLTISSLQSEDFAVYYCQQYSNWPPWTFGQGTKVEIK
AZD8895-25, sequence (heavy, as listed by the source, chain 1 of 2): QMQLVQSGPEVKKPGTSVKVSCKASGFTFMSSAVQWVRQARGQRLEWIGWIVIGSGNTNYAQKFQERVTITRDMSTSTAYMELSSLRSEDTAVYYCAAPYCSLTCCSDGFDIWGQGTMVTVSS

For “SARS-CoV-2 spike RBD protein (Sino Biological, 40592-V08H) (from UniProt P0DTC2) (domain or fragment)”, the Kd [1] was 1.89 nM, the Kd [2] was 1.42 nM and the Kd [3] was 7.33 nM. The Kd [4] was 5.92 nM, the Kd [5] was 5.17 nM and the Kd [6] was 4.81 nM. It also gave a Kd [7] of 6.71 nM and a Kd [8] of 6.7 nM.
